# Reference: patent publication US8101714B2, “Teleost derived antimicrobial polypeptides” (The University of Georgia Research Foundation, Inc., priority 2004, dated 2012)
# Key:
# E. coli, DH5alpha strain = assay: Anti-microbial modified broth dilution assay with recombinant NCAMP-1; assay type: cell-based; conditions: for MIC50 (MIC for 50% bactericidal activity): 2 h incubation, colony counts
# Procedure: (§1) The recombinant protein was examined for anti-microbial activity by a modified broth dilution assay. NCAMP-1 activity was tested against Gram positive (Micrococcus luteus, Streptococcus iniae) and Gram negative (E. coli, DH5alpha strain) microorganisms. S. iniae was grown and tested for susceptibility in Todd-Hewitt broth (THB) at 30° C. E. coli and M. luteus were grown and tested at 37° C. in Mueller-Hinton broth (MHB). Overnight cultures were diluted into fresh media and grown at the indicated temperature for 3-6 h. Cultures were diluted to 5000 CFUs (colony forming units)/ml in 10 mM sodium phosphate buffer (NAPB), supplemented to 10% wvith either MHB or THB. The relationship between A620 and CFUs was previously determined in our laboratory for each bacteria. Fifty microliters of bacteria (5000 CFUs) were added to an equal volume of NCAMP-1 (or control protein) diluted in 10 mM NAPB to the indicated protein concentration. Assay tubes were incubated at the appropriate temperatures for 2 h with shaking. Colony counts were then determined by plating serial dilutions of test cultures on the appropriate media. Results are expressed as CFUs/ml.
# Micrococcus luteus = assay: Anti-microbial assay, residual colony counts; assay type: cell-based; conditions: M. luteus, 37 C, 2 h
# Procedure: as §1, with “Fifty microliters of bacteria (5000 CFUs) were added to an equal volume of NCAMP-1 (or control protein) diluted in 10 mM NAPB to the indicated protein concentration. Assay tubes were incubated at the appropriate temperatures for 2 h with shaking.” left out
# M. luteus were killed by full length recombinant NCAMP-1. […] After 2 hours, the OD620 was measured. Using a previously determined relationship of OD620 0.1=1.2×10^7 CFUs/ml, bacteria was diluted to 10^5 CFUs/ml in sodium phosphate buffer (pH8) supplemented with 10% with MH broth (assay buffer). […] Serial dilutions of each sample were plated onto MH agar plates and residual colony counts were determined. […]
# GpC and CpG ODNs = assay: Southwestern (ODN) blot of recombinant NCAMP-1; assay type: binding; conditions: Southwestern blotting, biotinylated ODNs, FIG. 13B
# Procedure: Biotinylated ODNs were used to identify potential. DNA binding proteins in NCC membrane lysate preparations and to evaluate the ODN binding of recombinant NCAMP-1. Membrane lysates were prepared as indicated above. Purified recombinant NCAMP-1 was mixed with SDS-PAGE sample buffer (reducing) prior to electrophoresis. […] Membranes were blocked in Superblock (Pierce, Rockford Ill.) blocking solution with 0.05% Tween-20. ODN's were diluted in Superblock and added to membranes (1 h, room temperature). Membranes were washed (3×) in TBS with 0.5% Tween-20 (TBST). Neutraviden-HRP (Pierce) diluted in Superblock (minimum dilution 1:50000) was added and incubated for 30 min at room temperature. Blots were washed (3×) in TBST and were developed with enhanced chemiluminiscence (SuperSignal® West Pico Pierce, Rockford, Ill.).
# Streptococcus iniae = assay: Anti-microbial modified broth dilution assay with recombinant NCAMP-1; assay type: cell-based; conditions: S. iniae
# Procedure: as §1
Molecule,"MIC50 concentration (E. coli, DH5alpha strain) [µM]","MIC50 (MIC for 50% bactericidal activity) (E. coli, DH5alpha strain)",bactericidal activity (Micrococcus luteus),ODN binding of recombinant protein (GpC and CpG ODNs),"bactericidal activity (E. coli, DH5alpha strain; FIG. 17)",bactericidal activity (Streptococcus iniae; FIG. 17),"MIC50 (MIC for 50% bactericidal activity) (Streptococcus iniae; 2 h incubation, colony counts) [µM]"
"NCAMP-d2: truncated recombinant NCAMP-1, aa 1-60 of SEQ ID NO:3 (MSAQAEETAPEAAAPVQPSQPAAKKKGPASKAKPASAEKKNKKKKGKGPGKYSQLVINAI; listed as Ictalurus punctatus)",1.0,1.0 µM,–,–,–,–,–
"NCAMP-1: NCC cationic antimicrobial protein-1 from channel catfish, 203 amino acids, SEQ ID NO:3; recombinant His-tagged form expressed in E. coli (protein, listed as Ictalurus punctatus, His tag, recombinant His-tagged form expressed in E. coli) MSAQAEETAPEAAAPVQPSQPAAKKKGPASKAKPASAEKKNKKKKGKGPGKYSQLVINAIQTLGERNGSSLFKIYNEAKKVNWFDQQHGRVYLRYSIRALLQNDTLVQVKGLGANGSFKLNKKKFIPRTKKSSVKPRKTAKPTKKPAKKAAKKKKRVSGVKKATPPPEKTSKPKKADKSPAVSAKKASKPKKAKQTKKTAKKT",–,0.43 uM (SEQ ID NO: 3),killed,bind to GpC (SEQ ID NO:11) and CpG (SEQ ID NO:7),killed,killed,0.86
"NCAMP-d1: truncated recombinant NCAMP-1, aa 1-118 of SEQ ID NO:3 (protein, listed as Ictalurus punctatus) MSAQAEETAPEAAAPVQPSQPAAKKKGPASKAKPASAEKKNKKKKGKGPGKYSQLVINAIQTLGERNGSSLFKIYNEAKKVNWFDQQHGRVYLRYSIRALLQNDTLVQVKGLGANGSF",0.63,0.63 µM,–,–,–,–,–
